Experimental data from US20150203577A1 (Chugai, published 2015).

Columns and labels:
[1] = target: T1, mouse FcγRIII extracellular domain with C-terminal His tag (mouse, UniProt P08508 31-215); assay: SPR Biacore T200
T1 construct: Made on the basis of NCBI NP-034318.2; also called mFcγRIII; mFcgRIII
T1 chain: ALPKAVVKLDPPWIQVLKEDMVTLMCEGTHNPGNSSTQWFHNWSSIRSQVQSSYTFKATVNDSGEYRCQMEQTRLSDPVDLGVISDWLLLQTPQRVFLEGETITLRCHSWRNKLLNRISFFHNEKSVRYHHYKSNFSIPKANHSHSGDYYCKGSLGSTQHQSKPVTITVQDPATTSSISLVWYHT

[2] = target: T2, mouse FcγRII extracellular domain with C-terminal His tag (mouse, UniProt P08101 30-210); assay: SPR Biacore T200
T2 construct: Made on the basis of NCBI NP-034317.1; also called mFcγRII; mFcgRII
T2 sequence: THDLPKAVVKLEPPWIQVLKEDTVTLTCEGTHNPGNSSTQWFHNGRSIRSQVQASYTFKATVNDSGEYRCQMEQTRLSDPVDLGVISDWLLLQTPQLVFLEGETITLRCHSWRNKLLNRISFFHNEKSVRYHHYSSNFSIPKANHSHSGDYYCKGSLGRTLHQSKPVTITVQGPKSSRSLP

[3] = target: T2, mouse FcγRII extracellular domain with …; assay: SPR Biacore T200; KD mFcγRIII / KD mFcγRII

B1: H237-MB426/MRAL-k0 (antibody)
heavy: QVQLQESGPGLVKPSETLSLTCAVSGHSISHDHAWSWVRQPPGEGLEWIGFISYSGITNYNPSLQGRVTISRDNSKNTLYLQMNSLRAEDTAVYYCARSLARTTAMDYWGEGTLVTVSSAKTTPPSVYPLAPGSAAQTNSMVTLGCLVKGYFPEPVTVTWNSGSLSSGVHTFPAVLQSDLYTLSSSVTVPSSTWPSETVTCNVAHPASSTKVDKKIVPRDCGCKPCICPPAEVEDVFIFPPKPKDVLTITLTPKVTCVVVDISKDDPEVQFSWFVDDVEVHTAQTQPREEQFNSTFRSVSELPIMHQDWLNGKEFKCRVNSAAFPAPIEKTISKTKGRPKAPQVYTIPPPKEQMAKDKVSLTCMITDFFPEDITVEWQWNGQPAENYKNTQPIMDTDGSYFVYSKLNVQKSNWEAGNTFTCSVLHEGLHNHHTEKSLSHSPGK
light: not shown
notes: copies: 2 + 2
[1]
  relative mFcγRIII-binding activity (mIgG1 = 1): 4.4
[2]
  relative mFcγRII-binding activity (mIgG1 = 1): 112
[3]
  relative I/A (mFcγRII selectivity) (mIgG1 = 1): 25.2

B2: H237-MB427/MRAL-k0 (antibody, mouse IgG1, kappa)
heavy: QVQLQESGPGLVKPSETLSLTCAVSGHSISHDHAWSWVRQPPGEGLEWIGFISYSGITNYNPSLQGRVTISRDNSKNTLYLQMNSLRAEDTAVYYCARSLARTTAMDYWGEGTLVTVSSAKTTPPSVYPLAPGSAAQTNSMVTLGCLVKGYFPEPVTVTWNSGSLSSGVHTFPAVLQSDLYTLSSSVTVPSSTWPSETVTCNVAHPASSTKVDKKIVPRDCGCKPCICQPAEVEDVFIFPPKPKDVLTITLTPKVTCVVVDISKDDPEVQFSWFVDDVEVHTAQTQPREEQFNSTFRSVSELPIMHQDWLNGKEFKCRVNSAAFPAPIEKTISKTKGRPKAPQVYTIPPPKEQMAKDKVSLTCMITDFFPEDITVEWQWNGQPAENYKNTQPIMDTDGSYFVYSKLNVQKSNWEAGNTFTCSVLHEGLHNHHTEKSLSHSPGK
light: not shown
notes: copies: 2 + 2
[1]
  Kd: 40.3 nM
  relative mFcγRIII-binding activity (mIgG1 = 1): 7
[2]
  Kd: 0.966 nM
  relative mFcγRII-binding activity (mIgG1 = 1): 217
[3]
  I/A (mFcγRII selectivity): 41.7
  relative I/A (mFcγRII selectivity) (mIgG1 = 1): 31.1

B3: H237-MB429/MRAL-k0 (antibody, mouse IgG1, kappa)
heavy: QVQLQESGPGLVKPSETLSLTCAVSGHSISHDHAWSWVRQPPGEGLEWIGFISYSGITNYNPSLQGRVTISRDNSKNTLYLQMNSLRAEDTAVYYCARSLARTTAMDYWGEGTLVTVSSAKTTPPSVYPLAPGSAAQTNSMVTLGCLVKGYFPEPVTVTWNSGSLSSGVHTFPAVLQSDLYTLSSSVTVPSSTWPSETVTCNVAHPASSTKVDKKIVPRDCGCKPCICDPNEVEDVFIFPPKPKDVLTITLTPKVTCVVVDISKDDPEVQFSWFVDDVEVHTAQTQPREEQFNSTFRSVSELPIMHQDWLNGKEFKCRVNSAAFPAPIEKTISKTKGRPKAPQVYTIPPPKEQMAKDKVSLTCMITDFFPEDITVEWQWNGQPAENYKNTQPIMDTDGSYFVYSKLNVQKSNWEAGNTFTCSVLHEGLHNHHTEKSLSHSPGK
light: not shown
notes: copies: 2 + 2
[1]
  relative mFcγRIII-binding activity (mIgG1 = 1): 6.8
[2]
  relative mFcγRII-binding activity (mIgG1 = 1): 137
[3]
  relative I/A (mFcγRII selectivity) (mIgG1 = 1): 20.3

B4: H237-MB428/MRAL-k0 (antibody, mouse IgG1, kappa)
heavy: QVQLQESGPGLVKPSETLSLTCAVSGHSISHDHAWSWVRQPPGEGLEWIGFISYSGITNYNPSLQGRVTISRDNSKNTLYLQMNSLRAEDTAVYYCARSLARTTAMDYWGEGTLVTVSSAKTTPPSVYPLAPGSAAQTNSMVTLGCLVKGYFPEPVTVTWNSGSLSSGVHTFPAVLQSDLYTLSSSVTVPSSTWPSETVTCNVAHPASSTKVDKKIVPRDCGCKPCICTPAEVEDVFIFPPKPKDVLTITLTPKVTCVVVDISKDDPEVQFSWFVDDVEVHTAQTQPREEQFNSTFRSVSELPIMHQDWLNGKEFKCRVNSAAFPAPIEKTISKTKGRPKAPQVYTIPPPKEQMAKDKVSLTCMITDFFPEDITVEWQWNGQPAENYKNTQPIMDTDGSYFVYSKLNVQKSNWEAGNTFTCSVLHEGLHNHHTEKSLSHSPGK
light: not shown
notes: copies: 2 + 2
[1]
  Kd: 32 nM
  relative mFcγRIII-binding activity (mIgG1 = 1): 8.8
[2]
  Kd: 0.977 nM
  relative mFcγRII-binding activity (mIgG1 = 1): 215
[3]
  I/A (mFcγRII selectivity): 32.7
  relative I/A (mFcγRII selectivity) (mIgG1 = 1): 24.4
